Kd data for 32 molecules are collected here from publication PMC10786891, “Massively parallel profiling of RNA-targeting CRISPR-Cas13d”.

Residue numbers refer to the chain shown, from its start. Names may count otherwise.

In general, Kd refers to a measure of binding affinity in units of concentration. A higher Kd goes with a looser complex.

First the molecules themselves.
T1: EsCas13d, nuclease-dead (Eubacterium siraeum, UniProt B0MS50, R295A;H300A;R849A;H854A)
T1 sequence: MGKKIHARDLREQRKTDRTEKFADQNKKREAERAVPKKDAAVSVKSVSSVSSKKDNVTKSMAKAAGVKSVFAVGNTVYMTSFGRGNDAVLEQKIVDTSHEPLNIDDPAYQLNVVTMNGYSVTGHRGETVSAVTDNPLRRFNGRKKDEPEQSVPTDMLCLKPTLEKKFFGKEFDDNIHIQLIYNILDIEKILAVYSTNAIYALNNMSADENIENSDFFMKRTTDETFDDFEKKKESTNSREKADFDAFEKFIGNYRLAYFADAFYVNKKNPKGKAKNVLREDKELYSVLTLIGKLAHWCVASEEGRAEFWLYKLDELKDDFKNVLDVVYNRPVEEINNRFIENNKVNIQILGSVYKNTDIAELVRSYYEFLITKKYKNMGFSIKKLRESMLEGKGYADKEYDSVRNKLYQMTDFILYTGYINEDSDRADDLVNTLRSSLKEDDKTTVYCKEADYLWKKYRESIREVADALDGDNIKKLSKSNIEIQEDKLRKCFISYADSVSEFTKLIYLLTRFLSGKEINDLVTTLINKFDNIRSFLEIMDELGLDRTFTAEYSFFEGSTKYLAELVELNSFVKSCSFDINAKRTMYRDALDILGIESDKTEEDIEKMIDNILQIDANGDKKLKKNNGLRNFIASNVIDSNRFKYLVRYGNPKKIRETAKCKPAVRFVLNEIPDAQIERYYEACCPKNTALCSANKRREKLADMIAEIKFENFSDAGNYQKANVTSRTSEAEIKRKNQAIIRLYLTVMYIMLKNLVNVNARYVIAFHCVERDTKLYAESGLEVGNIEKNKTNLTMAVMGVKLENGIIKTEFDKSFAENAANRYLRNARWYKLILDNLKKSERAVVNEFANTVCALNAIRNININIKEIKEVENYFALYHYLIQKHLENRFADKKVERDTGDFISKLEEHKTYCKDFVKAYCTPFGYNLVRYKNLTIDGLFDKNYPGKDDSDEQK

B1: target 1 MT 5'PFS GUU 3'PFS AUA (mixed)
RNA 1: CACCCGUGCAAAAAUGCAGGGGUCUAAAACUGAGCGGAUAACCUCUCUAUGG
RNA 2: GGGAAUGGAUCCACAUCUACGAAUUCGUUCCAUAGAGAGGUUAUCCGCUCAAUAAGAUCGGAAGAGCACACGU
B2: target 1 MT 5'PFS GGG 3'PFS UGA (mixed)
RNA 1: B1 RNA 1
RNA 2: B1 RNA 2 with U28G, U29G, A52U, U53G
B3: target 1 MT 5'PFS GGG 3'PFS UGC (mixed)
RNA 1: B1 RNA 1
RNA 2: B1 RNA 2 with U28G, U29G, A52U, U53G, A54C
B4: target 1 insC 3' of 9,insA 3' of 5 (mixed)
RNA 1: B1 RNA 1
RNA 2: GGGAAUGGAUCCACAUCUACGAAUUCGUACCAUAGAGAGGUUACUCCGACUCACCGAGAUCGGAAGAGCACACGU
B5: target 1 MT 5'PFS UGG 3'PFS CAU (mixed)
RNA 1: B1 RNA 1
RNA 2: B1 RNA 2 with G27U, U28G, U29G, A52C, U53A, A54U
B6: target 1 MT 5'PFS UUG 3'PFS CGG (mixed)
RNA 1: B1 RNA 1
RNA 2: B1 RNA 2 with G27U, U29G, A52C, U53G, A54G
B7: target 1 MT 5'PFS GAA 3'PFS CGA (mixed)
RNA 1: B1 RNA 1
RNA 2: B1 RNA 2 with U28A, U29A, A52C, U53G
B8: target 1 MT 5'PFS CCG 3'PFS ACU (mixed)
RNA 1: B1 RNA 1
RNA 2: B1 RNA 2 with G27C, U28C, U29G, U53C, A54U
B9: target 1 MT 5'PFS CUG 3'PFS CUC (mixed)
RNA 1: B1 RNA 1
RNA 2: B1 RNA 2 with G27C, U29G, A52C, A54C
B10: target 1 MT 5'PFS CUU 3'PFS UAA (mixed)
RNA 1: B1 RNA 1
RNA 2: B1 RNA 2 with G27C, A52U, U53A
B11: target 1 MT 5'PFS AGA 3'PFS UAC (mixed)
RNA 1: B1 RNA 1
RNA 2: B1 RNA 2 with G27A, U28G, U29A, A52U, U53A, A54C
B12: target 1 MT 5'PFS GUG 3'PFS GAA (mixed)
RNA 1: B1 RNA 1
RNA 2: B1 RNA 2 with U29G, A52G, U53A
B13: target 1 MT 5'PFS UCG 3'PFS UGC (mixed)
RNA 1: B1 RNA 1
RNA 2: B1 RNA 2 with G27U, U28C, U29G, A52U, U53G, A54C
B14: target 1 MT 5'PFS UAC 3'PFS UCG (mixed)
RNA 1: B1 RNA 1
RNA 2: B1 RNA 2 with G27U, U28A, U29C, A52U, U53C, A54G
B15: target 1 MT 5'PFS UUG 3'PFS CGA (mixed)
RNA 1: B1 RNA 1
RNA 2: B1 RNA 2 with G27U, U29G, A52C, U53G
B16: target 1 MT 5'PFS CUU 3'PFS UAG (mixed)
RNA 1: B1 RNA 1
RNA 2: B1 RNA 2 with G27C, A52U, U53A, A54G
B17: target 1 MT 5'PFS UAC 3'PFS UCC (mixed)
RNA 1: B1 RNA 1
RNA 2: B1 RNA 2 with G27U, U28A, U29C, A52U, U53C, A54C
B18: target 1 G17C (mixed)
RNA 1: B1 RNA 1
RNA 2: B1 RNA 2 with U29A, G35C, A52C, U53C, A54G
B19: target 1 MT 5'PFS CGC 3'PFS UCG (mixed)
RNA 1: B1 RNA 1
RNA 2: B1 RNA 2 with G27C, U28G, U29C, A52U, U53C, A54G
B20: target 1 MT 5'PFS CUG 3'PFS CUA (mixed)
RNA 1: B1 RNA 1
RNA 2: B1 RNA 2 with G27C, U29G, A52C
B21: target 1 MT 5'PFS GUU 3'PFS AUG (mixed)
RNA 1: B1 RNA 1
RNA 2: B1 RNA 2 with A54G
B22: target 1 insC 3' of 14,insC 3' of 9 (mixed)
RNA 1: B1 RNA 1
RNA 2: B4 RNA 2 with G39C, U41G, A43U, C44A, U45C, C46U, G48C, A49G
B23: target 1 MT 5'PFS ACG 3'PFS UUC (mixed)
RNA 1: B1 RNA 1
RNA 2: B1 RNA 2 with G27A, U28C, U29G, A52U, A54C
B24: target 1 MT 5'PFS GUG 3'PFS GAU (mixed)
RNA 1: B1 RNA 1
RNA 2: B1 RNA 2 with U29G, A52G, U53A, A54U
B25: target 1 MT 5'PFS AGA 3'PFS UAG (mixed)
RNA 1: B1 RNA 1
RNA 2: B1 RNA 2 with G27A, U28G, U29A, A52U, U53A, A54G
B26: target 1 MT 5'PFS ACG 3'PFS UUA (mixed)
RNA 1: B1 RNA 1
RNA 2: B1 RNA 2 with G27A, U28C, U29G, A52U
B27: target 1 G5U,A14G (mixed)
RNA 1: B1 RNA 1
RNA 2: B1 RNA 2 with U29A, A38G, G47U, A52C, U53C, A54G
B28: target 1 MT 5'PFS AGA 3'PFS UAA (mixed)
RNA 1: B1 RNA 1
RNA 2: B1 RNA 2 with G27A, U28G, U29A, A52U, U53A
B29: target 1 MT 5'PFS GUG 3'PFS GAG (mixed)
RNA 1: B1 RNA 1
RNA 2: B1 RNA 2 with U29G, A52G, U53A, A54G
B30: target 1 MT 5'PFS GGG 3'PFS GAG (mixed)
RNA 1: B1 RNA 1
RNA 2: B1 RNA 2 with U28G, U29G, A52G, U53A, A54G
B31: target 1 MT 5'PFS GUG 3'PFS GAC (mixed)
RNA 1: B1 RNA 1
RNA 2: B1 RNA 2 with U29G, A52G, U53A, A54C
B32: target 1 MT 5'PFS CUU 3'PFS UAU (mixed)
RNA 1: B1 RNA 1
RNA 2: B1 RNA 2 with G27C, A52U, U53A, A54U

In the data set the target is T1, EsCas13d, nuclease-dead. As to the kind of experiment: crRNA (strand 1, pre-loaded); Mg2+; 40 mM Tris-HCl pH 7.5, 150 mM NaCl, 6 mM MgCl2, 1 mM DTT, 0.1% Tween-20, 0.2 mg/ml BSA; 25 C; 10 min per concentration, then washed. The settings on record: tags: His6-TwinStrep-SUMO cleaved; N-terminal SNAP kept (SNAP-Surface 488); label: 3' end held by stalled T7 RNA polymerase.
B1 had a Kd of 22 ± 5.5 nM. The value for B2 was 24.5 ± 4 nM. Then B3, with 12.8 ± 1.3 nM; and B4, with 5.89 ± 0.35 nM; and B5, with 80 ± 32 nM. Then B6, with roughly 97 nM; and B7, with roughly 85 nM.

B8 displayed a Kd of roughly 4.9 nM. The value for B9 was 4.15 ± 1.5 nM. The value for B10 was 35 ± 11.5 nM; that for B11 was 40 ± 17 nM; that for B12 was 12.9 ± 1.4 nM. Turning to B13, the Kd was roughly 50 nM. Then B14, with 21.3 ± 8.05 nM; and B15, with 47.5 ± 23.5 nM.

Molecule B16 registered a Kd of roughly 90 nM. B17 gave a Kd of 12.5 ± 5 nM. Then B18, with 40 ± 8 nM.

B19 registered a Kd of roughly 76 nM. For the molecule B20, the Kd was 5.8 ± 1.9 nM. B21 registered a Kd of 56 ± 9 nM. The value for B22 was 42 ± 11 nM; that for B23 was 19.5 ± 8 nM; that for B24 was 15.4 ± 1.95 nM.

Molecule B25 returned a Kd of 35.5 ± 14 nM. The value for B26 was 6.9 ± 1.3 nM; that for B27 was 68 ± 7 nM; that for B28 was 45 ± 20 nM. The value for B29 was 18.8 ± 2.25 nM.

As for B30, the affinity, expressed as Kd, was 20.5 ± 5.5 nM. The value for B31 was 17.2 ± 2.9 nM; that for B32 was 56 ± 24 nM.
